Laboratory results reported in US20210380680A1 (ZLLP, published 2021).
Where a chain is given by its changes, count along the chain named. In names and notes the source's numbering stands.

B1: 364D1A7-H1L5 (antibody, V domains shown)
VH: EVQLVESGGGLVQPGGSLRLSCAASGFTFSSFGMHWVRQAPGKGLEWVSYISSGSGSIYYADTVKGRFTISRDNAKNSLYLQMNSLRAEDTAVYYCATSYYYGNALEYWGQGTTVTVSS
VL: DVVLTQSPDSLAVSLGERATISCKSSQSLFNVGNQKNYLTWYQQKPGQTPTLLIYWASTRKSGVPDRFTGSGSGTDFTLTISSLQAEDVAVYYCQNVYSYPLTFGAGTKVEIK
notes: humanized IgG; constant regions not specified
B2: 364D1A7-H2L2 (antibody, V domains shown)
VH: B1 VH with S49A, A75P
VL: B1 VL with V2I, S22N, T51K, T69S, A106G
notes: as for B1
B3: 364D1A7-H4L1 (antibody, V domains shown)
VH: B1 VH with E1D, S49A, I70L, A75P, S78T
VL: B1 VL with V2I, L4M, S22N, T49P, T51K, T69S, A106G
notes: humanized IgG; constant regions not specified; also called 364D1A7-H41L
B4: 364D1A7-H4L5 (antibody, V domains shown)
VH: B1 VH with E1D, S49A, I70L, A75P, S78T
VL: B1 VL
notes: as for B1
B5: 413H9F8-H3L4 (antibody, V domains shown)
VH: EVQLVESGGGLVQPGGSLRLSCAASGFTFSSFGMHWVRQAPGKGLEWVAYISSGSSPIYYVDKLKGRFTVSRDNAKNSLYLQMNSLRAEDTAVYYCARAGYAVRNALDYWGQGTLVTVSS
VL: DIVMTQSPDSLAVSLGERATISCKSSQSLLNVGNQKNYLAWYQQKPGQPPKLLIYGASTRESGVPDRFIGSGSGTDFTLTISSLQAEDVAVYFCQNDLFYPLTFGAGTKVEIK
notes: as for B1
B6: 413H9F8-H4L3 (antibody, V domains shown)
VH: B5 VH with N84T
VL: B5 VL with S22N, A106G
notes: as for B1
B7: hz282-2 (antibody, V domains shown)
VH: QVQLQESGPGLVKPSETLSLTCTVSGFSLTSYNVYWIRQPPGKGLEWIGVIWNTGATRYNSALKSRVTISKDTSKNQVSLKLSSVTAADTAVYYCARDSAMPAIPFAYWGQGTLVTVSS
VL: DIVMTQSPDSLAVSLGERATINCKSSQSLFGSVRQKNYLAWYQQKPGQPPKLLIYLASTRESGVPDRFSGSGSGTDFTLTISSLQAEDVAVYYCQQYYDIPWTFGGGTKVEIK
notes: as for B1
B8: hz282-6 (antibody, V domains shown)
VH: B7 VH
VL: B7 VL with P49S, V91K
notes: as for B1
B9: hz282-7 (antibody, V domains shown)
VH: B7 VH with N76S
VL: B7 VL with P49S, V91K
notes: as for B1
B10: hz282-14 (antibody, V domains shown)
VH: B7 VH
VL: DIQMTQSPSSLSASVGDRVTITCKSSQSLFGSVRQKNYLAWYQQKPGKSPKLLIYLASTRESGVPDRFSGSGSGTDFTLTISSLQPEDFAKYYCQQYYDIPWTFGGGTKVEIK
notes: as for B1
B11: hz282-16 (antibody, V domains shown)
VH: B7 VH with S25A, N76S
VL: B10 VL
notes: as for B1
B12: 413H9F8-H1L2 (antibody, V domains shown)
VH: B5 VH with A49S, V70I
VL: B5 VL with S22N, I69S, A106G
notes: as for B1
B13: 413H9F8-H1L4 (antibody, V domains shown)
VH: B5 VH with A49S, V70I
VL: B5 VL
notes: as for B1
B14: 413H9F8-H2L3 (antibody, V domains shown)
VH: B5 VH with V70I
VL: B5 VL with S22N, A106G
notes: as for B1
B15: 413H9F8-H2L4 (antibody, V domains shown)
VH: B5 VH with V70I
VL: B5 VL
notes: as for B1
B16: 413H9F8-H3L1 (antibody, V domains shown)
VH: B5 VH
VL: B5 VL with S22N, I69S, F93Y, A106G
notes: as for B1
B17: 413H9F8-H3L2 (antibody, V domains shown)
VH: B5 VH
VL: B5 VL with S22N, I69S, A106G
notes: as for B1
B18: 413H9F8-H3L3 (antibody, V domains shown)
VH: B5 VH
VL: B5 VL with S22N, A106G
notes: as for B1
B19: 413H9F8-H4L1 (antibody, V domains shown)
VH: B5 VH with N84T
VL: B5 VL with S22N, I69S, F93Y, A106G
notes: as for B1
B20: 413H9F8-H4L2 (antibody, V domains shown)
VH: B5 VH with N84T
VL: B5 VL with S22N, I69S, A106G
notes: as for B1
B21: 413H9F8-H4L4 (antibody, V domains shown)
VH: B5 VH with N84T
VL: B5 VL
notes: as for B1
B22: 364D1A7-H2L3 (antibody, V domains shown)
VH: B1 VH with S49A, A75P
VL: B1 VL with S22N, T51K, T69S, A106G
notes: as for B1
B23: 364D1A7-H1L2 (antibody, V domains shown)
VH: B1 VH
VL: B1 VL with V2I, S22N, T51K, T69S, A106G
notes: as for B1
B24: 364D1A7-H1L3 (antibody, V domains shown)
VH: B1 VH
VL: B1 VL with S22N, T51K, T69S, A106G
notes: as for B1
B25: 364D1A7-H1L4 (antibody, V domains shown)
VH: B1 VH
VL: B1 VL with T69S, A106G
notes: as for B1
B26: 364D1A7-H2L1 (antibody, V domains shown)
VH: B1 VH with S49A, A75P
VL: B1 VL with V2I, L4M, S22N, T49P, T51K, T69S, A106G
notes: as for B1
B27: 364D1A7-H2L4 (antibody, V domains shown)
VH: B1 VH with S49A, A75P
VL: B1 VL with T69S, A106G
notes: as for B1
B28: 364D1A7-H2L5 (antibody, V domains shown)
VH: B1 VH with S49A, A75P
VL: B1 VL
notes: as for B1
B29: 364D1A7-H3L2 (antibody, V domains shown)
VH: B1 VH with S49A, I70L, A75P
VL: B1 VL with V2I, S22N, T51K, T69S, A106G
notes: as for B1
B30: 364D1A7-H3L3 (antibody, V domains shown)
VH: B1 VH with S49A, I70L, A75P
VL: B1 VL with S22N, T51K, T69S, A106G
notes: as for B1
B31: 364D1A7-H3L4 (antibody, V domains shown)
VH: B1 VH with S49A, I70L, A75P
VL: B1 VL with T69S, A106G
notes: as for B1
B32: 364D1A7-H3L5 (antibody, V domains shown)
VH: B1 VH with S49A, I70L, A75P
VL: B1 VL
notes: as for B1
B33: 364D1A7-H4L2 (antibody, V domains shown)
VH: B1 VH with E1D, S49A, I70L, A75P, S78T
VL: B1 VL with V2I, S22N, T51K, T69S, A106G
notes: as for B1
B34: 364D1A7-H4L3 (antibody, V domains shown)
VH: B1 VH with E1D, S49A, I70L, A75P, S78T
VL: B1 VL with S22N, T51K, T69S, A106G
notes: as for B1
B35: 364D1A7-H4L4 (antibody, V domains shown)
VH: B1 VH with E1D, S49A, I70L, A75P, S78T
VL: B1 VL with T69S, A106G
notes: as for B1

Target: T1, human Claudin 18.2 (CLDN18.2) (human, UniProt P56856-2 1-261)
Test: cell-based or functional assay

Binder | % ADCC @ 6.67 nM, NCI-N87-CLDN18.2, FcR-TANK [%] | ADCC EC50, NCI-N87-CLDN18.2, FcR-TANK [nM]
B1 | 9.1 | 0.26
B2 | 9.4 | 0.22
B3 | 9.3 | 0.31
B4 | 12 | 0.34
B5 | 16 | 0.35
B6 | 15.4 | 0.47

Target: T1, human Claudin 18.2 (CLDN18.2)
Test: cell-based or functional assay
Remark: another data set of the same source

Binder | % specific cytotoxicity @ 6.67 nM, NUGC4-CLDN18.2, PBMC [%] | ADCC EC50, NUGC4-CLDN18.2, PBMC [nM]
B1 | 27.5 | 8.17
B2 | 26.6 | 9.69
B3 | 26.4 | 7.58
B4 | 26.4 | 6.4
B5 | 28.7 | 6.09
B6 | 27.8 | 7.01

Target: T2, CLDN18.2 endogenously expressed on SNU620 gastric cancer cells (UniProt P56856-2 1-261, limits assumed)
T2 construct: whole, on cells; also called SU620
Test: FACS Exp. 3, SNU620 cells

Binder | MFI_SNU620 (@30 ug/ml) [MFI]
B7 | 1060
B8 | 1290
B9 | 1250
B10 | 1220
B11 | 1280

Target: T1, human Claudin 18.2 (CLDN18.2)
Test: FACS on CHO-CLDN18.2 cells

Binder | EC50 [nM]
B12 | 2.18
B13 | 3.32
B14 | 2.49
B15 | 2.8
B16 | 2.42
B17 | 2.14
B18 | 2.24
B5 | 2.74
B19 | 2.69
B20 | 2.45
B6 | 2.62
B21 | 2.34

Target: T1, human Claudin 18.2 (CLDN18.2)
Test: FACS on CHO-CLDN18.2 cells
Remark: another data set of the same source

Binder | EC50 [nM]
B22 | 4.4
B23 | 6.9
B24 | 4.1
B25 | 4.03
B1 | 3.96
B26 | 3.47
B2 | 6.14
B27 | 3.94
B28 | 3.35
B29 | 4.05
B30 | 3.54
B31 | 4.78
B32 | 4.53
B3 | 4.12
B33 | 4.51
B34 | 4.56
B35 | 3.85
B4 | 4.38

Target: T1, human Claudin 18.2 (CLDN18.2)
Test: FACS Exp. 1, MFI ratio CHO-18.2 over CHO-18.1

Binder | MFI_CHO-18.2/CHO-18.1 (@30 ug/ml)
B7 | 521
B8 | 521
B9 | 624
B10 | 798
B11 | 550
